T1: EphB2, P29323
T1 chain: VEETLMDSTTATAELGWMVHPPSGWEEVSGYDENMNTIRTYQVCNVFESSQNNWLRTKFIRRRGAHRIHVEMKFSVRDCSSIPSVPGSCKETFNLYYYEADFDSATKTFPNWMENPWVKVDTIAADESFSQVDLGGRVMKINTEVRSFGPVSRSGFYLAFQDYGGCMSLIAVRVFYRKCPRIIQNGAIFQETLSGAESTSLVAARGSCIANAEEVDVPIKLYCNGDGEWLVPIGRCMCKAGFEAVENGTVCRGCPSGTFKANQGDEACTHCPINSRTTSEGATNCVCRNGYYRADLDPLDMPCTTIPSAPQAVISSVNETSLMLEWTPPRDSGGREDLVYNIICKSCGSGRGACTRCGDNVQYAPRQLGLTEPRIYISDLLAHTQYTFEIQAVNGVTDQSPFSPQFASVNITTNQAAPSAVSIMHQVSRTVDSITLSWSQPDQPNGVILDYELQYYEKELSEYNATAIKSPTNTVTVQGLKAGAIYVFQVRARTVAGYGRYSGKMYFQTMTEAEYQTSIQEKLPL

T2: EphB3, P54753
T2 chain: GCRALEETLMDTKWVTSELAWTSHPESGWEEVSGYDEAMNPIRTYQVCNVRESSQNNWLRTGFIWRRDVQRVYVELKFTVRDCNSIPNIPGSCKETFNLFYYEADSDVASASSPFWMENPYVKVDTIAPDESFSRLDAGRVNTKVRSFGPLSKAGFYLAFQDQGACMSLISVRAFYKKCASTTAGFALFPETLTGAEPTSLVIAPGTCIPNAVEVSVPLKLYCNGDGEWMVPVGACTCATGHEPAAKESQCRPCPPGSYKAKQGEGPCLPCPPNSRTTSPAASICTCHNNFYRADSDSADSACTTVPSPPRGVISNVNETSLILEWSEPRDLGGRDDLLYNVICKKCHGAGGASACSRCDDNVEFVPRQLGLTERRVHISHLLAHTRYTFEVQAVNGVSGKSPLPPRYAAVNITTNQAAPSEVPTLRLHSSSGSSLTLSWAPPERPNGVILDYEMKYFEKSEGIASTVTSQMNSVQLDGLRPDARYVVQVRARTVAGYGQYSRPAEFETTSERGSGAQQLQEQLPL


Experiments:
Assay in all cases: BLI
Conditions in all cases: modification not given
EphA2, P29317 = target: EphA2, P29317
EphB2, P29323 = target: T1, EphB2, P29323
EphB3, P54753 = target: T2, EphB3, P54753

Sequence of EphA2, P29317 (P29317 25-534): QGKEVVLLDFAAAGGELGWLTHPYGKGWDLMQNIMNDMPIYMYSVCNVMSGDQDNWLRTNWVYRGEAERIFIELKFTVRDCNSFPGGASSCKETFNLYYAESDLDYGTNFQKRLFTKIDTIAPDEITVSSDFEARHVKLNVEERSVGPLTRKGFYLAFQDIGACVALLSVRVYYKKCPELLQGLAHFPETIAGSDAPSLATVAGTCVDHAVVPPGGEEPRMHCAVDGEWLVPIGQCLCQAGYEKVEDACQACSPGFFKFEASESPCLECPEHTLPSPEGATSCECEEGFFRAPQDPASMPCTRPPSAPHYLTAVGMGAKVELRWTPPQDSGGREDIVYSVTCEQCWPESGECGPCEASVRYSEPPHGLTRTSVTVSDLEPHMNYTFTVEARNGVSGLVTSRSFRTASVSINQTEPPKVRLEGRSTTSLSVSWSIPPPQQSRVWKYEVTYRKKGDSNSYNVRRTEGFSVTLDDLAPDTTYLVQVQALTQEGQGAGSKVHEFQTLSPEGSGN

Binder | Kd (EphA2, P29317) | Kd (EphB2, P29323) | Kd (EphB3, P54753)
QEFSPNLWGLEFKKN [xEFN_RBD4] | 178 µM | 263 µM | 156 µM
KFQLFSPFLWGFEF [xEFN_RBD2] | – | – | 5070 µM
